In this assay the target is vhl_human VHL (UniProt P40337).
Sequence of vhl_human VHL (P40337 whole entry, looked up): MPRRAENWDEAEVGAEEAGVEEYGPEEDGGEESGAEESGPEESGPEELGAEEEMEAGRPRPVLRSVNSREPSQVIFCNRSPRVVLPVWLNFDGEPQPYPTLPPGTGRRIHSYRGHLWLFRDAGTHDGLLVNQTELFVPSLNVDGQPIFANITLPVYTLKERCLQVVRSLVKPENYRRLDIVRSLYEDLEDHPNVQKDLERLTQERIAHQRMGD
Sequence of T-complex protein 1 subunit alpha (Saccharomyces cerevisiae), P12612 L326A (P12612 whole entry L326A, one chain of several): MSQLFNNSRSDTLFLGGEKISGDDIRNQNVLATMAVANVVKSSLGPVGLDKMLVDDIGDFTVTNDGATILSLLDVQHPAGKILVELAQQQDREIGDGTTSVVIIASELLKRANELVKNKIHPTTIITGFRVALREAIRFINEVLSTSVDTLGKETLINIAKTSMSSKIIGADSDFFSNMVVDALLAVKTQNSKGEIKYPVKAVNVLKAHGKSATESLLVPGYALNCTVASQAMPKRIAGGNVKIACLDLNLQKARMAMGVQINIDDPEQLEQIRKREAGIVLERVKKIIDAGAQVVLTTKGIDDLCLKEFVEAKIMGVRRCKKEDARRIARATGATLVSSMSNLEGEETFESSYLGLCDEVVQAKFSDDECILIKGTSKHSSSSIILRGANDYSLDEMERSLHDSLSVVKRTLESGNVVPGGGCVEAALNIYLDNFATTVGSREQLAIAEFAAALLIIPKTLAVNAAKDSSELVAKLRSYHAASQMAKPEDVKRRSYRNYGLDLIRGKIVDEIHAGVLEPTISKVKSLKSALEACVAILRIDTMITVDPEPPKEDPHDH
Sequence of T-complex protein 1 subunit alpha (Saccharomyces cerevisiae), P12612 L305A (P12612 whole entry L305A, one chain of several): as the sequence (P12612 whole entry L326A, one chain of several) above, with L305A, A326L counted along it
Sequence of T-complex protein 1 subunit alpha (Saccharomyces cerevisiae), P12612 R319A (P12612 whole entry R319A, one chain of several): as the sequence (P12612 whole entry L326A, one chain of several) above, with R319A, A326L counted along it
Sequence of T-complex protein 1 subunit alpha (Saccharomyces cerevisiae), P12612 V311A (P12612 whole entry V311A, one chain of several): as the sequence (P12612 whole entry L326A, one chain of several) above, with V311A, A326L counted along it
For the substance “T-complex protein 1 subunit alpha (Saccharomyces cerevisiae), P12612 V311A”, the “effect of a mutation on the interaction” value is recorded as “decreasing interaction strength”. With “T-complex protein 1 subunit alpha (Saccharomyces cerevisiae), P12612 L305A”, the “effect of a mutation on the interaction” value is on record as “decreasing interaction strength”. For “T-complex protein 1 subunit alpha (Saccharomyces cerevisiae), P12612 R319A” the value was “decreasing interaction strength”; for “T-complex protein 1 subunit alpha (Saccharomyces cerevisiae), P12612 L326A”, “decreasing interaction strength”.

(Values after IntAct's records for PubMed 25416944.)
